{"source": "paper PMC4383501", "about": "“Computational Selection of RNA Aptamer against Angiopoietin-2 and Experimental Evaluation”", "key": {"[1]": {"target": "T1, Angiopoietin-2 (Ang2), active human (human, UniProt O15123 19-496)", "T1 sequence (O15123 19-496)": "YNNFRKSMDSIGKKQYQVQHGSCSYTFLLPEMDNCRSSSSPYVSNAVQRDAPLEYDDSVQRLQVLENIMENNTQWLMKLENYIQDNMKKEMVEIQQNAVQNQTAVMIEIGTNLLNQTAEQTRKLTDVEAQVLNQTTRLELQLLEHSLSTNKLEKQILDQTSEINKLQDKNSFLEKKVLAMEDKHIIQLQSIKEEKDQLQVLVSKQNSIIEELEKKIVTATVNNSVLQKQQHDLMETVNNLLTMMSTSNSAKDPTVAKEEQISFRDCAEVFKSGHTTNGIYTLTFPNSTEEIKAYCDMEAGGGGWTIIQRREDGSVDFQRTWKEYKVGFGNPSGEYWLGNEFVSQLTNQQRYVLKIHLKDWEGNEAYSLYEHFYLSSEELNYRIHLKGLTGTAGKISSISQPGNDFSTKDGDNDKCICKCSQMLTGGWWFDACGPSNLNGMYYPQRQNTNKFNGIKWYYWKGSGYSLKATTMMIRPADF", "test": "SPR; kon 10.02e3 M-1s-1; koff 1.39e-3 s-1; SPR imaging, biotinylated RNA on streptavidin/BAT-PEG chip, 0.5 uM Ang2 in TBS pH 7.4, 9 min association, 6 min TBS rinse; temperature not stated", "settings": "protein: commercial; label: 5' biotin; single strand"}, "[2]": {"target": "T1, Angiopoietin-2 (Ang2), active human", "test": "SPR; kon 1.66e3 M-1s-1; koff 4.99e-3 s-1; described as very weak, partly nonspecific adsorption; SPR imaging, biotinylated RNA on streptavidin/BAT-PEG chip, 0.5 uM Ang2 in TBS pH 7.4, 9 min association, 6 min TBS rinse; temperature not stated", "settings": "protein: commercial; label: 5' biotin; single strand"}, "[3]": {"target": "T1, Angiopoietin-2 (Ang2), active human", "test": "SPR; kon 6.03e3 M-1s-1; koff 0.61e-3 s-1; SPR imaging, biotinylated RNA on streptavidin/BAT-PEG chip, 0.5 uM Ang2 in TBS pH 7.4, 9 min association, 6 min TBS rinse; temperature not stated", "settings": "protein: commercial; label: 5' biotin; single strand"}, "[4]": {"target": "T1, Angiopoietin-2 (Ang2), active human", "test": "SPR; kon 8.22e3 M-1s-1; koff 0.97e-3 s-1; SPR imaging, biotinylated RNA on streptavidin/BAT-PEG chip, 0.5 uM Ang2 in TBS pH 7.4, 9 min association, 6 min TBS rinse; temperature not stated", "settings": "protein: commercial; label: 5' biotin; single strand"}, "[5]": {"target": "T1, Angiopoietin-2 (Ang2), active human", "test": "SPR; kon 4.07e3 M-1s-1; koff 0.79e-3 s-1; SPR imaging, biotinylated RNA on streptavidin/BAT-PEG chip, 0.5 uM Ang2 in TBS pH 7.4, 9 min association, 6 min TBS rinse; temperature not stated", "settings": "protein: commercial; label: 5' biotin; single strand"}, "Angiopoietin-2 (human)": {"target": "Angiopoietin-2 (human) (Homo sapiens (Human), UniProt O15123 19-496)", "sequence (O15123 19-496)": "as above", "test": "SPR; TBS pH 7.4, 25 C", "settings": "label: 5'-biotin (5'-A5 is a spacer)"}}}
{"binder": "AAAAAACUAGCCUCAUCAGCUCAUGUGCCCCUCCGCCUGGAUCAC (ssRNA)", "note": "[Seq1 (biotin-A5)]", "values": [{"measurement": "Ka", "setting": "[1]", "result": "7.23 10^6 M^-1"}]}
{"binder": "AAAAAACUCGAACAUUUCCACUAACCAACCAUACUAAAGCACCGC (ssRNA)", "note": "[Seq16 (biotin-A5), Ang1-specific aptamer]", "values": [{"measurement": "Ka", "setting": "[2]", "result": "0.33 10^6 M^-1"}]}
{"binder": "AAAAAGAGGACGAUGCCGACUAGCCUCAUCAGCUCAUGUCCCCCUC (ssRNA)", "note": "[Seq15_12_35 (biotin-A5)]", "values": [{"measurement": "Ka", "setting": "[3]", "result": "9.89 10^6 M^-1"}]}
{"binder": "AAAAAGAGGACGAUGCGGAUUAGCCUCAUCAGCUCAUGUGCCGCUC (ssRNA)", "note": "[Seq15_15_38 (biotin-A5)]", "values": [{"measurement": "Ka", "setting": "[4]", "result": "8.47 10^6 M^-1"}]}
{"binder": "AAAAAUUAACCAUCAGAUCAUGGCCCCUGCCCUCUCAAGCACCAC (ssRNA)", "note": "[Seq2_12_35 (biotin-A5)]", "values": [{"measurement": "Ka", "setting": "[5]", "result": "5.15 10^6 M^-1"}]}
{"binder": "AAAAAACUAGCCUCAUCAGCUCAUGUGCCCCUCCGCCUGGAUCAC (ssRNA)", "note": "[Seq1]", "values": [{"measurement": "Kd", "setting": "Angiopoietin-2 (human)", "result": 138, "unit": "nM"}]}
{"binder": "AAAAAACUCGAACAUUUCCACUAACCAACCAUACUAAAGCACCGC (ssRNA)", "note": "[Seq16 (Ang1 aptamer / negative control)]", "values": [{"measurement": "Kd", "setting": "Angiopoietin-2 (human)", "result": 3030, "unit": "nM"}]}
